Reference: publication PMC3828348

Test system: GST-KSRP
Assay: competition
Settings: REMSA: 50 mM Tris-HCl pH 7.0, 150 mM NaCl, 0.25 mg/ml tRNA, 0.25 mg/ml BSA, 5% glycerol, 10 min 37°C; competition: 10 mM HEPES pH 7.4, 100 mM KCl, 5 mM MgCl2 …; scale: % HuD binding remaining at equimolar KSRP

GAP-43 ARE RNA (pGAP/B transcript)
binding signal: 50
